Data reported in PMC3756924 (Molecular Biology of the Cell, 2013).

T1: GST-Lst1p (S. cerevisiae, UniProt P38810 1-929)
T1 sequence (looked up): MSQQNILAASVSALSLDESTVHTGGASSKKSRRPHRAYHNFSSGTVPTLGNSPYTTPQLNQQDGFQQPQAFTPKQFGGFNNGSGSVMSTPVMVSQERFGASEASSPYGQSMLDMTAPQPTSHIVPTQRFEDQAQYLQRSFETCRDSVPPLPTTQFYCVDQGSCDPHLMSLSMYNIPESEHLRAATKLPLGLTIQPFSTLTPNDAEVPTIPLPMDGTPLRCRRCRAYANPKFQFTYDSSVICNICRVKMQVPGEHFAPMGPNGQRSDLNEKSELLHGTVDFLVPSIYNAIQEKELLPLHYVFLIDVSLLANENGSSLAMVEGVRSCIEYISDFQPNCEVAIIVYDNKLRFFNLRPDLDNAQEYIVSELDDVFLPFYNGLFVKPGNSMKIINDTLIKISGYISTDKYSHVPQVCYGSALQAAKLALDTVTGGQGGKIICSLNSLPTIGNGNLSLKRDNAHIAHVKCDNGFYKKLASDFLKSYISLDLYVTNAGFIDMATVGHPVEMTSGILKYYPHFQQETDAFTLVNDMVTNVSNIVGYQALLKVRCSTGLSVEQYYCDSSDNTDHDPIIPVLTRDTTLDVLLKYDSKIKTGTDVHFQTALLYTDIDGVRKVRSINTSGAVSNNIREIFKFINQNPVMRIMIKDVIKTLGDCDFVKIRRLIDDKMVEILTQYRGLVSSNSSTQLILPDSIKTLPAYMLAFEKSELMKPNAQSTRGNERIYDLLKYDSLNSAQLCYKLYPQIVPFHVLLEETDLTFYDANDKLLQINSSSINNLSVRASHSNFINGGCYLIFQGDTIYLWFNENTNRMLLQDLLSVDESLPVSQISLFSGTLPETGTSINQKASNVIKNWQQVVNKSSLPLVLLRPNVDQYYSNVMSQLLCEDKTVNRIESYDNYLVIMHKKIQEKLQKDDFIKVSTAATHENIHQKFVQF

T2: GST-Sec23p (S. cerevisiae, UniProt P15303 1-768)
T2 sequence (looked up): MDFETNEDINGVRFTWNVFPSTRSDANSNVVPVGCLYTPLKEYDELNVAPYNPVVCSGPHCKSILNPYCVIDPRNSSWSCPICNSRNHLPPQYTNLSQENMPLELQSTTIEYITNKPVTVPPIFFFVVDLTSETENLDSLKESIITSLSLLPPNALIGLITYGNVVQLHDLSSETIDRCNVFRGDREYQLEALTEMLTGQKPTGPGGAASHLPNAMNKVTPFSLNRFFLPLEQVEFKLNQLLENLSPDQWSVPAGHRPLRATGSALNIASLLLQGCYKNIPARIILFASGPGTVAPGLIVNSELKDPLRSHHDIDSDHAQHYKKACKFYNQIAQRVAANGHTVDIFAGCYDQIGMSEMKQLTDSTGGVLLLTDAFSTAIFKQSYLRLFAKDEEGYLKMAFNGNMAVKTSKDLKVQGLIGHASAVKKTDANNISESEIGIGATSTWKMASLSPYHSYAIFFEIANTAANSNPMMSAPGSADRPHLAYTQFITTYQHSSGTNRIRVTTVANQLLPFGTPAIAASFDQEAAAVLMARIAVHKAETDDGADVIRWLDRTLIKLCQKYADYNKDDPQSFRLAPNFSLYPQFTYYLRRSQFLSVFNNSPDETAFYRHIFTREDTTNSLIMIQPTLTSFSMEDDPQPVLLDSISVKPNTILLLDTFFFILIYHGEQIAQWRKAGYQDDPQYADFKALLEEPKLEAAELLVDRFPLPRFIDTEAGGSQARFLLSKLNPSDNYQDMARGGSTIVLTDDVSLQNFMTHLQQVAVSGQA

T3: GST-Sec31p (aa 1–500) (S. cerevisiae, UniProt P38968 1-500)
T3 sequence (looked up): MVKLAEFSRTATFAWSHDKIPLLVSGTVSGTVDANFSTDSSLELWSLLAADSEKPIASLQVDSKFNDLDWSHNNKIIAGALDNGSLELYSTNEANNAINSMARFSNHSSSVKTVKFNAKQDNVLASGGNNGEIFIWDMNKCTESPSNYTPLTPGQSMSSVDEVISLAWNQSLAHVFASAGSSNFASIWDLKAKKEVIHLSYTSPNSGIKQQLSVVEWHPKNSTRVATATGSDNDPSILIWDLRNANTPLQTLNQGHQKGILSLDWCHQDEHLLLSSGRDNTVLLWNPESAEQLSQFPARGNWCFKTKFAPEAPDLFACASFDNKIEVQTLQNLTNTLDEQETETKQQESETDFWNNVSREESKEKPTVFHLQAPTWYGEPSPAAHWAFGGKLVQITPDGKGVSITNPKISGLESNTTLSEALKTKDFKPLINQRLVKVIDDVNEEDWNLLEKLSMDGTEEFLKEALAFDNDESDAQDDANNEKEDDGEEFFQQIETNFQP

T4: GST-Sec24p (S. cerevisiae, UniProt P40482 1-926)
T4 sequence (looked up): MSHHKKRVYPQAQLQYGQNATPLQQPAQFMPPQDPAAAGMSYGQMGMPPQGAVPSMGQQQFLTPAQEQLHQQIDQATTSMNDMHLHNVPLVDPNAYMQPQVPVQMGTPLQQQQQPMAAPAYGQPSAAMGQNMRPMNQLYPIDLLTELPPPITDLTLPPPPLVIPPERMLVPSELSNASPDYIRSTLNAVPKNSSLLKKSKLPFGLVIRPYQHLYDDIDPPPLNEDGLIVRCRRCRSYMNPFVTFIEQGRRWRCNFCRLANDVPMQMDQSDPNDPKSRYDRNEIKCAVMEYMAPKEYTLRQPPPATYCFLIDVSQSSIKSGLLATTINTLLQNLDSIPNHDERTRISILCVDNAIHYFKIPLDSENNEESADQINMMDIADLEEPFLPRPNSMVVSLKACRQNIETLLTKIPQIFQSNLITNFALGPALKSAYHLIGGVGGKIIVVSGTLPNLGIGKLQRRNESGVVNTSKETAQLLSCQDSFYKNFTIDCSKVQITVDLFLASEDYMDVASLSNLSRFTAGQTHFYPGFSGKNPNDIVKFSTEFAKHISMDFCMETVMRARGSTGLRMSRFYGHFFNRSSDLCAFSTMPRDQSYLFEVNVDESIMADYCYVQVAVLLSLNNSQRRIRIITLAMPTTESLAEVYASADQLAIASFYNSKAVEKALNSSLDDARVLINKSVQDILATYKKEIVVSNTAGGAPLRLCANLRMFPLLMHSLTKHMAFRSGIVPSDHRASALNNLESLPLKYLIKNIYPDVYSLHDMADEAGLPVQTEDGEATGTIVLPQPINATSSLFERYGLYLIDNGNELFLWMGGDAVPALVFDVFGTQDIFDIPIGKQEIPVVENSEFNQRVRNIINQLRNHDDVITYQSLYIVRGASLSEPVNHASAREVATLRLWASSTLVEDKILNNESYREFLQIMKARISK

B1: GST-Sec31p (aa 1115–1273) (domain or fragment, S. cerevisiae, UniProt P38968 1115-1273, looked up)
chain: RSNKLASIEQNPSQGATYPPTLSSSASPLQPSQPPTLASQVNTSAENVSHEIPADQQPIVDFLKEELARVTPLTPKEYSKQLKDCDKRLKILFYHLEKQDLLTQPTIDCLHDLVALMKEKKYKEAMVIHANIATNHAQEGGNWLTGVKRLIGIAEATLN
B2: hexahistidine (His6)-Sit4p (enzyme, S. cerevisiae, UniProt P20604 1-311, looked up)
chain: MVSRGPDEWLETIKKCQALTENEMKQLCEMVKELLMEESNIQPVQTPVTVCGDIHGQFHDLLELFRTAGGFPDDINYIFLGDYVDRGYYSLETFTLLMCLKVKYPAKITLVRGNHESRQITQVYGFYEECLNKYGSTTVWKYCCQVFDFLTLAAIIDGKILCVHGGLSPEIRMLDQIRVLSRAQEVPHEGGFSDLLWSDPDNVEAWQVSPRGAGWLFGSKVAREFNHVNGLNLIARAHQLVMEGFKYHFPEKDVVTVWSAPNYCYRCGNVASVMKVDEDLEPTFKIFSAVPDDYIRESTANHNNQRAGYFL

Columns and labels:
Assay in all cases: pull-down
[1] = target: B2
[2] = target: T1, GST-Lst1p
[3] = target: T2, GST-Sec23p
[4] = target: T3, GST-Sec31p (aa 1–500)
[5] = target: T4, GST-Sec24p

Binder | binding result [1] | binding result [2] | binding result [3] | binding result [4] | binding result [5]
B1 | binds | – | – | – | –
B2 | – | binds | binds | binds | binds
